# Molecular target: p.Arg127Gln GPIbα (amino acids Met1-Glu301) (human) (UniProt P07359)
# Assay: SPR
# UniProt P07359, sequence (P07359 17-301 R127Q): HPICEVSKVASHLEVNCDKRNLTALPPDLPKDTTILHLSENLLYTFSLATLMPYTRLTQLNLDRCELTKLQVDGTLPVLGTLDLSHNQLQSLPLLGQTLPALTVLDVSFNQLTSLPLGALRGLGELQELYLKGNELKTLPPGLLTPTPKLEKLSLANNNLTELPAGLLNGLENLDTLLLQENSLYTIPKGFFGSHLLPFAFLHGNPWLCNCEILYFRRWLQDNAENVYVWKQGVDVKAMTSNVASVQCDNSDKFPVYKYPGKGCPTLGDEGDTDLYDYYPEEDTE
substance,measurement,value
VWF A1 domain (domain or fragment),Kd,2040 nM

# Source: publication PMC9006298
